Assay results from publication PMC8287952, “PARP1 and CHK1 coordinate PLK1 enzymatic activity during the DNA damage response to promote homologous recombination-mediated repair” (Nucleic Acids Research, 2021).

Molecular target: T1, HIS-PLK1 (UniProt P53350 1-603)
T1 construct: Polo-like kinase 1 (PLK1), HIS tagged, expressed in bacteria via pET28a; also called HIS tagged PLK1; source: bacterially produced (pET28a system)
Test: pull-down; GST-CHK1 (insect cells) as bait, HIS-PLK1 (bacterial) as prey; 1 μg of each in NETN buffer (20 mM Tris–HCl pH 8.0, 0.15 M NaCl, 1 mM EDTA, 0.5% NP-40), 4°C overnight; glutathione-sepharose beads; immunoblotting
Details: both partners purified

T1 sequence (P53350 whole entry): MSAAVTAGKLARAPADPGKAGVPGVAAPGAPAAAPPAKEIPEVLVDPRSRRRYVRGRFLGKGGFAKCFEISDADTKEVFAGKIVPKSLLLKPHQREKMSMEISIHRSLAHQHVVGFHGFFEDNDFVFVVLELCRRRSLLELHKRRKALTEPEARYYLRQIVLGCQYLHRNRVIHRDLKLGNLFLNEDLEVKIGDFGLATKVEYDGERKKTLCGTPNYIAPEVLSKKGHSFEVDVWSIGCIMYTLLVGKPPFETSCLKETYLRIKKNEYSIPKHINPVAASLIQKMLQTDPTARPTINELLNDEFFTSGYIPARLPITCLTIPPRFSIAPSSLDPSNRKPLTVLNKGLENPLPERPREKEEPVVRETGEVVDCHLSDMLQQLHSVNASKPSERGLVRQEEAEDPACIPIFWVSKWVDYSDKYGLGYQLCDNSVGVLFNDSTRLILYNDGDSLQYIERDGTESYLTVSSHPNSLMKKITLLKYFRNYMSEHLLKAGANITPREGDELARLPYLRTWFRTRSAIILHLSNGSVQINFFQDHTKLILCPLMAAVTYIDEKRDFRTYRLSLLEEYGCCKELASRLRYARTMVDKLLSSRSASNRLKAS

- binding result: binds
B1: Recombinant human active protein GST-CHK1 (enzyme, UniProt O14757 1-476, looked up)
chain: MAVPFVEDWDLVQTLGEGAYGEVQLAVNRVTEEAVAVKIVDMKRAVDCPENIKKEICINKMLNHENVVKFYGHRREGNIQYLFLEYCSGGELFDRIEPDIGMPEPDAQRFFHQLMAGVVYLHGIGITHRDIKPENLLLDERDNLKISDFGLATVFRYNNRERLLNKMCGTLPYVAPELLKRREFHAEPVDVWSCGIVLTAMLAGELPWDQPSDSCQEYSDWKEKKTYLNPWKKIDSAPLALLHKILVENPSARITIPDIKKDRWYNKPLKKGAKRPRVTSGGVSESPSGFSKHIQSNLDFSPVNSASSEENVKYSSSQPEPRTGLSLWDTSPSYIDKLVQGISFSQPTCPDHMLLNSQLLGTPGSSQNPWQRLVKRMTRFFTKLDADKSYQCLKETCEKLGYQWKKSCMNQVTISTTDRRNNKLIFKVNLLEMDDKILVDFRLSKGDGLEFKRHFLKIKGKLIDIVSSQKIWLPAT
notes: Human checkpoint kinase CHK1, recombinant active protein; source: bought: R&D Systems (1630-KS-010), produced in insect cells
